Assay results from PMC3792076, “Elucidation of Substrate Specificity in Aspergillus nidulans UDP-Galactose-4-Epimerase” (PLoS ONE, 2013).

Target: UDP-galactose-4-epimerase from Aspergillus nidulans (Aspergillus nidulans)
Experiment: crystal structure; microbatch at 277 K, 20% (w/v) PEG3350, 0.1 M Bis-Tris propane pH 7.5, 0.2 M sodium fluoride, grown with 10 mM UDP-glucose; space group C2, three monomers per asymmetric unit (one homodimer and one monomer that forms a dimer through symmetry); 2.8 Å

stoichiometry N: 2
Substance: UDP-galactose-4-epimerase from Aspergillus nidulans (enzyme)
